# What was measured:
# [1] = test system: C3a
# [2] = test system: T1, C5a
# T1 sequence: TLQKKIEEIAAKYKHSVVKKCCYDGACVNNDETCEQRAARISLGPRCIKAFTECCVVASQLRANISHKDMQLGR
# CPN1-HSA, sequence (chain): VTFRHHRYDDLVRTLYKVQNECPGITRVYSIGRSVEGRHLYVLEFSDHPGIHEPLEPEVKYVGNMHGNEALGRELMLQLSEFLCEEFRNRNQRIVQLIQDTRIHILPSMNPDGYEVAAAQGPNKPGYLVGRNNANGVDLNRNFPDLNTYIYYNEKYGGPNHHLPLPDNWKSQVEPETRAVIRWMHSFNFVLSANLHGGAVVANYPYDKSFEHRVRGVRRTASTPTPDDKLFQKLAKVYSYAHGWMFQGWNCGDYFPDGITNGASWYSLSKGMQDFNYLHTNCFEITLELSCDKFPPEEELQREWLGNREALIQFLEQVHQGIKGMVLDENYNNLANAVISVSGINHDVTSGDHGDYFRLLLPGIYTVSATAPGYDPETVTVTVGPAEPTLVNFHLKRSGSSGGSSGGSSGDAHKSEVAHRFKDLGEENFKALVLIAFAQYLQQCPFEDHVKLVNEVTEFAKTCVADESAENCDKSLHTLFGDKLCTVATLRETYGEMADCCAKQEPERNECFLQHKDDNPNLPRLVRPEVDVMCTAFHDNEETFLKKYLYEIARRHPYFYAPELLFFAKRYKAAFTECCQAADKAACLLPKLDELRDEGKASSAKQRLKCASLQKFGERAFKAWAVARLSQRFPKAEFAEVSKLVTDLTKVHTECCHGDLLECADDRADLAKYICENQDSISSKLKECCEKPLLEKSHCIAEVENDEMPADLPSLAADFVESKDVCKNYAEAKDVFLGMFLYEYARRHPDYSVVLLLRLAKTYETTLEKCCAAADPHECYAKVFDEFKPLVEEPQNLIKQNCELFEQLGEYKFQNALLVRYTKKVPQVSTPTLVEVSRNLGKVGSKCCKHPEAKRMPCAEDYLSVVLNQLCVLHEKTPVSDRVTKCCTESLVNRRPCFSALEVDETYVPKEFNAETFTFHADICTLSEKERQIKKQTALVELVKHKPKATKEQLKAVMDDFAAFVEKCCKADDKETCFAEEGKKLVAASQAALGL
# C3a, sequence (chain, as listed by the source): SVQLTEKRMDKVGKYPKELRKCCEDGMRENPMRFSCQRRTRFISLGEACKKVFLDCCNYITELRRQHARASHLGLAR
substance,measurement,setting,value
CPN1-HSA,"% Cleavage (GPCR assay, purified enzyme)",[1],100%
same,"% Cleavage (GPCR assay, supernatant)",[1],100%
same,"Kcat/KM (Arg LC-MS/MS, purified enzyme)",[1],800000 M⁻¹ s⁻¹
same,"% Cleavage (GPCR assay, purified enzyme)",[2],82%
same,"% Cleavage (GPCR assay, supernatant)",[2],97%

# Reference: patent US20250277200
